According to paper PMC7168753 (Science (New York, N.Y.), 2019):

B1: DH270 UCA with the improbable G57R mutation (antibody, V domains shown)
VH: not shown
VL: QSALTQPASVSGSPGQSITISCTGTSSDVGSYNLVSWYQQHPGKAPKLMIYEVSKRPSGVSNRFSGSKSGNTASLTISGLQAEDEADYYCCSYAGSSTVIFGGGTKLTVL
B2: DH270 UCA (antibody, format not stated in the text) (antibody, V domains shown)
VH: not shown
VL: B1 VL

Molecular target: CH848 10.17DT stabilized SOSIP gp140 Env trimer (HIV-1)
Experiment: SPR

| Binder | Kd |
| --- | --- |
| B1 | 132 nM |
| B2 | 558 nM |
